Assay results as given in EP4678181A1.

Experiments:
[1] = target: interleukin-2 alpha receptor (SYMANSIS, #4102H) to which a human immunoglobulin Fc region was linked (UniProt P01589); assay: SPR (Biacore T200), receptor-Fc captured by anti-human Ig antibody on CM5 chip; relative to analog 1 (aldesleukin)
[2] = target: T1, interleukin-2 beta receptor (SYMANSIS, #4122H) to which a human immunoglobulin Fc region was linked (UniProt P14784); assay: as above
T1 sequence (looked up): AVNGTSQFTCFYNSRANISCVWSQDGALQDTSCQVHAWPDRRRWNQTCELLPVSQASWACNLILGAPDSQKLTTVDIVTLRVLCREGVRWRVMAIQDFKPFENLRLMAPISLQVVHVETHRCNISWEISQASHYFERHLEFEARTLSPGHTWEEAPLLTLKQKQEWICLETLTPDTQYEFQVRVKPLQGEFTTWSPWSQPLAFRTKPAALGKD

[3] = target: biotin-labeled human interleukin-2 receptor alpha subunit (ACROBiosystems) (human) (UniProt P01589); assay: SPR (Biacore T200), biotin-labeled receptor subunit on streptavidin chip; relative to aldesleukin
[4] = target: T2, biotin-labeled human interleukin-2 receptor beta subunit (ACROBiosystems) (human) (UniProt P14784); assay: as above
T2 sequence (biotin-labeled (site not stated), looked up): T1 sequence (looked up)

Measured: Relative binding affinity (%)

interleukin-2 analog 1 (aldesleukin), sequence (P60568 other isoform, or with tags, fused parts or gaps): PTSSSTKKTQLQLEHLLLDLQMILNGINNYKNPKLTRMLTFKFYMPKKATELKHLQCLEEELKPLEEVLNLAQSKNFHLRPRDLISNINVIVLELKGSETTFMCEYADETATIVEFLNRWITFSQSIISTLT
interleukin-2 alpha receptor (SYMANSIS, #4102H) to which a human immunoglobulin Fc region was linked, sequence (P01589 22-213 limits assumed): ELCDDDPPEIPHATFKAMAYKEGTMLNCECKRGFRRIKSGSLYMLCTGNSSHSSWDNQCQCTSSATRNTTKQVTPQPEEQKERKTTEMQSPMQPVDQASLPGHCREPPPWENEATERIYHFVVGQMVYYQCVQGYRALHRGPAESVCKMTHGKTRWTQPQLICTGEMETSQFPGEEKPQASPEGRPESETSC
biotin-labeled human interleukin-2 receptor alpha subunit (ACROBiosystems) (human), sequence (P01589 22-213): as the sequence (P01589 22-213 limits assumed) above

interleukin-2 analog 1 (aldesleukin) (from UniProt P60568 22-153) (ligand)
100%: all assays above
